Source: article PMC12292641

Target: PpbHLH1 (Phalaenopsis pulcherrima)

PpMYB1 (natural protein) gave a dual-luciferase assay in tobacco leaves: PpANS promoter activity with PpMYB1 and PpbHLH1 co-expressed, against PpMYB1 alone of 4.7 fold.
